Data: EP4814014A1, “BINDING MOLECULE AND ANTIBODY-DRUG CONJUGATE AND USE THEREOF” (priority 2023, dated 2025)

Assays:
[1] = target: T1, human EGFR on cells (human, UniProt P00533 25-1210); assay: FACS, VHH-His on MDA-MB-468 cells
T1 construct: whole, on cells; the cell line is named under assay; also called CHO-S-EGFR; CHOK1-huEGFR

[2] = target: T2, cynomolgus monkey cMet-his (ECD, Met1-Thr932) (cynomolgus monkey, UniProt A0A2K5UM36 25-932); assay: SPR, antigen amine-coupled on GLM chip, antibody injected, 1:1 model
T2 construct: Bought; range as printed includes Met1
T2 sequence (A0A2K5UM36 entry or part of it limits assumed, form in doubt): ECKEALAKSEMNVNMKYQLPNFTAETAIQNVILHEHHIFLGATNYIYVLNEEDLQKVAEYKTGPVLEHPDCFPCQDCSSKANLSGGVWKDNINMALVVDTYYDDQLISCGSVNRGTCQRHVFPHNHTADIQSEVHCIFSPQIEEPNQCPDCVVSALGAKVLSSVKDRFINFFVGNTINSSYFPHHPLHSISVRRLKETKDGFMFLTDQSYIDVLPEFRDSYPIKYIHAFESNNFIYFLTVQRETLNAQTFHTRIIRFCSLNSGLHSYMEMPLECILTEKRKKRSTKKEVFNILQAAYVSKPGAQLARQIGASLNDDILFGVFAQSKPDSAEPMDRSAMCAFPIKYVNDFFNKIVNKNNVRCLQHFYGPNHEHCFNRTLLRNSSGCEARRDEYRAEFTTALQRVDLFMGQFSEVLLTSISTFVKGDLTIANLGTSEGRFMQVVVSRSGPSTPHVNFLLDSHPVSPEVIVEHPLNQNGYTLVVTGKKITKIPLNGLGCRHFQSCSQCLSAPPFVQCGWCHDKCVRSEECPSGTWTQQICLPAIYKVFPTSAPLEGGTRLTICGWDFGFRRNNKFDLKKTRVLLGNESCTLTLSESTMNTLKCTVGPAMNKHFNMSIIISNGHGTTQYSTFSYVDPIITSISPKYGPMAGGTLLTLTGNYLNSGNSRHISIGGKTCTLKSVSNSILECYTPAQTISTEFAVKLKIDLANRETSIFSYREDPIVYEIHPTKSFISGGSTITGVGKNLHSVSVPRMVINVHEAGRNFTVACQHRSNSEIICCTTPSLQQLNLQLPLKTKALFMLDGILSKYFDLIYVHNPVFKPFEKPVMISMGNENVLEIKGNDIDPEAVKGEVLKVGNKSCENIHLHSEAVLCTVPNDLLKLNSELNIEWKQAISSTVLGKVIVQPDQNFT

[3] = target: T3, human cMet-his (ECD, Met1-Thr932) (human, UniProt P08581 25-932); assay: as above
T3 construct: Bought; range as printed includes Met1
T3 sequence (P08581 25-932): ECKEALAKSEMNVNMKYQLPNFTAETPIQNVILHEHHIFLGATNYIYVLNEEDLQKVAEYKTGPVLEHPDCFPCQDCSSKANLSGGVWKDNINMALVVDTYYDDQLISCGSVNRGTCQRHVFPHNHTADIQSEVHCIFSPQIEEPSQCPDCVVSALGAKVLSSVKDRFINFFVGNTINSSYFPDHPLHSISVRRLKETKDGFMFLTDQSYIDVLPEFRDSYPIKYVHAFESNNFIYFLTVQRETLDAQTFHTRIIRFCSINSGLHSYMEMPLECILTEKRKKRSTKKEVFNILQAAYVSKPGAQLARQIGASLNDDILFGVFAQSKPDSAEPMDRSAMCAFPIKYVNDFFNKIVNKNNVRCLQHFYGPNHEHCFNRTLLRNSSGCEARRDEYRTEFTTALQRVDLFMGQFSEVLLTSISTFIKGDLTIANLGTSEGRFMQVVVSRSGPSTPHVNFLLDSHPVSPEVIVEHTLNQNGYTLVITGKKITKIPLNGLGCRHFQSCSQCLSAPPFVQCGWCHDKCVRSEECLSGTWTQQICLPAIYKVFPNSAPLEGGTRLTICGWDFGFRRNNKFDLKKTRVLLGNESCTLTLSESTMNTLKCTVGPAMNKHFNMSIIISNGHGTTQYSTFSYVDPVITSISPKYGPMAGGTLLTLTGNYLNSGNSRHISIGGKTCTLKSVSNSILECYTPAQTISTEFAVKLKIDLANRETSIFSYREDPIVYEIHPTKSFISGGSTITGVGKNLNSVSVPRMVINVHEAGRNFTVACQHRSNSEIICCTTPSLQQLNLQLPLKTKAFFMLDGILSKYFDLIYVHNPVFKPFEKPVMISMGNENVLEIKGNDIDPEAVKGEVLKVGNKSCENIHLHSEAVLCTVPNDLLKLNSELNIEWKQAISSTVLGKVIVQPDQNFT

[4] = target: T4, human EGFR-his (ECD, Met1-Ser645) (human, UniProt P00533 25-645); assay: as above
T4 construct: range 1-645; Bought; range as printed includes Met1

[5] = target: T5, cynomolgus monkey EGFR-his (ECD, Met1-Ser645) (cynomolgus monkey, UniProt A0A2K5WK39 1-645); assay: as above
T5 construct: range 1-645; Bought; range as printed includes Met1

B1: zn10A1.m5 (VHH, not shown: small tags and cut ends)
VHH: QVQLVQSGPEVKKPGTSVKVSCKASGRTGSLHAMGWFRQARGQERERVATLNLSDGSAVTADSVKGRFTITTDNSKNSVYMELSSLRSEDTAVYYCTASRSPSGIRYYKPDYWGQGTMVTVSS
B1 showed a Maximum MFI value [1] of 3480 MFI.

B2: zn10A1.m6 (VHH, not shown: small tags and cut ends)
VHH: QVQLVESGGGLVQPGGSLRLSCAASGRTGSLHAMGWFRQAPGKERERVATLNLSDGSAVTADSVKGRFTISTDNSKNSVYLQMNSLRAEDTAVYYCTASRSPSGIRYYKPDYWGQGTLVTVSS
Work on B2 yielded a Maximum MFI value [1] of 9680 MFI.

B3: pn10A1.m1 (VHH, not shown: small tags and cut ends)
VHH: QVQLVESGGGLVQAGGSLRLSCAASGRTGSLHAMGWFRQAPGKERERVATLQLSDGSAVTADSVKGRFTISTDNTKNSVYLQMNSLKPEDTAVYYCTASRSPSGIRYYKPDYWGQGTQVTVSS
B3 was tested, and the Maximum MFI value [1] was 10300 MFI.

B4: pn10A1.m2 (VHH, not shown: small tags and cut ends)
VHH: QVQLVESGGGLVQAGGSLRLSCAASGRTGSLHAMGWFRQAPGKERERVATLNLADGSAVTADSVKGRFTISTDNTKNSVYLQMNSLKPEDTAVYYCTASRSPSGIRYYKPDYWGQGTQVTVSS
In the case of B4, the Maximum MFI value [1] is reported as 3770 MFI.

B5: pn10A1.m3 (VHH, not shown: small tags and cut ends)
VHH: QVQLVESGGGLVQAGGSLRLSCAASGRTGSLHAMGWFRQAPGKERERVATLQLTDGSAVTADSVKGRFTISTDNTKNSVYLQMNSLKPEDTAVYYCTASRSPSGIRYYKPDYWGQGTQVTVSS
With B5 the Maximum MFI value [1] was 5480 MFI.

B6: pn10A1.m4 (VHH, not shown: small tags and cut ends)
VHH: QVQLVESGGGLVQAGGSLRLSCAASGRTGSLHAMGWFRQAPGKERERVATLNLSEGSAVTADSVKGRFTISTDNTKNSVYLQMNSLKPEDTAVYYCTASRSPSGIRYYKPDYWGQGTQVTVSS
In the case of B6, the Maximum MFI value [1] is reported as 5260 MFI.

B7: pn10A1.m5 (VHH, not shown: small tags and cut ends)
VHH: QVQLVESGGGLVQAGGSLRLSCAASGRTGSLHAMGWFRQAPGKERERVATLNLSDVSAVTADSVKGRFTISTDNTKNSVYLQMNSLKPEDTAVYYCTASRSPSGIRYYKPDYWGQGTQVTVSS
B7 showed a Maximum MFI value [1] of 27400 MFI.

B8: pn10A1.m6 (VHH, not shown: small tags and cut ends)
VHH: QVQLVESGGGLVQAGGSLRLSCAASGRTGSLHAMGWFRQAPGKERERVATLNLSDASAVTADSVKGRFTISTDNTKNSVYLQMNSLKPEDTAVYYCTASRSPSGIRYYKPDYWGQGTQVTVSS
B8 was tested, and the Maximum MFI value [1] was 5790 MFI.

B9: zn5B10.m18 (VHH, not shown: small tags and cut ends)
VHH: EVQLVESGGGLVQPGGSLRLSCSASGTIIGTYTMAWYRQAPGKQREMVAIITPGGGSHHADSVKGRFTISRDNSKSTVYLQMSSLRAEDTAVYYCNAKARWGTTEYWGQGTLVTVSS
notes: Humanized anti-EGFR VHH-His
For B9, the EC50 [1] was 1.3 nM and the “Maximum MFI value” [1] was 71100 MFI.

B10: zn5B10.m16 (VHH, not shown: small tags and cut ends)
VHH: EVQLVESGGGLVQPGGSLRLSCAASGTIIGTYTMAWYRQAPGKQREMVAIITPGGGSHHADSVKGRFTISRDNSKNTLYLQMNSLRAEDTAVYYCNAKARWGTTEYWGQGTMVTVSS
notes: Humanized anti-EGFR VHH-His
B10 was tested, and the EC50 [1] was 3.13 nM and the “Maximum MFI value” [1] was 76800 MFI.

B11: zn5B10.m17 (VHH, not shown: small tags and cut ends)
VHH: EVQLVESGGGLVQPGGSLRLSCAASGTIIGTYTMAWYRQAPGKQREMVAIITPGGGSHHADSVKGRFTISRDNSKNTVYLQMNSLRAEDTAVYYCNAKARWGTTEYWGQGTMVTVSS
notes: Humanized anti-EGFR VHH-His
With B11 the EC50 [1] was 23.2 nM and the “Maximum MFI value” [1] was 93600 MFI.

B12: zn5B10.m20 (VHH, not shown: small tags and cut ends)
VHH: EVQLVESGGGLVQPGGSLRLSCSASGTIIGTYTMAWYRQAPGKQREMVAIITPGGGSHHADSVKGRFTISRDNSKNTLYLQMSSLRAEDTAVYYCNAKARWGTTEYWGQGTLVTVSS
notes: Humanized anti-EGFR VHH-His; also called hu5B10
For B12, the EC50 [1] was 0.219 nM and the “Maximum MFI value” [1] was 59200 MFI.

B13: zn5B10.m21 (VHH, not shown: small tags and cut ends)
VHH: EVQLVESGGGLVQPGGSLRLSCSASGTIIGTYTMAWYRQAPGKQREMVAIITPGGGSHHADSVKGRFTISRDNGKNTLYLQMSSLRAEDTAVYYCNAKARWGTTEYWGQGTLVTVSS
notes: Humanized anti-EGFR VHH-His
B13 was tested, and the EC50 [1] was 0.429 nM and the “Maximum MFI value” [1] was 58700 MFI.

B14: zn5B10.m22 (VHH, not shown: small tags and cut ends)
VHH: EVQLVESGGGLVQPGGSLRLSCSASGTIIGTYTMAWYRQAPGKQREMVAIITPGGGSHHADSVKGRFTISRDNSKNTLYLQMSSLRFEDTAVYYCNAKARWGTTEYWGQGTLVTVSS
notes: Humanized anti-EGFR VHH-His
With B14 the EC50 [1] was 1.15 nM and the “Maximum MFI value” [1] was 86900 MFI.

B15: zn5B10.m23 (VHH, not shown: small tags and cut ends)
VHH: EVQLVESGGGLVQPGGSLRLDCSASGTIIGTYTMAWYRQAPGKQREMVAIITPGGGSHHADSVKGRFTISRDNSKSTVYLQMSSLRFEDTAVYYCNAKARWGTTEYWGQGTLVTVSS
notes: Humanized anti-EGFR VHH-His
In the case of B15, the EC50 [1] is reported as 1.94 nM and the “Maximum MFI value” [1] is reported as 74200 MFI.

B16: V-1 (5B10-9A2-7A12) (bispecific antibody)
chain: AVQLVDSGGGLVQPGGSLRLDCSASGTIIGTYTMAWYRQAPGKQREMVAIITPGGGSHHADSVKGRFTISRDNGKSTVYLQMSSLKFEDTAVYYCNAKARWGTTEYWGQGTQVTVSSGGGGSQSQLAESGGGLVQSGGSLGLSCVASGFTISRSIMSWYRQPPGKERDWVASIGSAGNTNYVDSVKGRFTISRDVAKNTVYLQMNSLKPEDTAVYYCKTTLAVSFSEYWGQGTQVTVSSGGGGSGGGGSEVQLVESGGGLVQAGGSLRLSCVASGNIFSSNHMGWFRQAPGKQREFIAYITTREITNYADSVKGRFTISRDNTKNTVYLQMNVLKPEDTAVYYCIADQSREIRRSWGQGTQVTVSS
notes: Single-chain trispecific anti-EGFR/cMet antibody
In the case of B16, the Kd [2] is reported as 6.43 nM, the koff [2] is reported as 0.000855 s⁻¹ and the kon [2] is reported as 133000 M⁻¹ s⁻¹. It also gave a Kd [3] of 9.81 nM, a koff [3] of 0.00132 s⁻¹ and a kon [3] of 135000 M⁻¹ s⁻¹. The Kd [4] was 31.7 nM, the koff [4] was 0.00354 s⁻¹ and the kon [4] was 112000 M⁻¹ s⁻¹. It also gave a Kd [5] of 27.8 nM, a koff [5] of 0.00206 s⁻¹ and a kon [5] of 74100 M⁻¹ s⁻¹.

B17: V-3 (5B10-7A12-9A2) (bispecific antibody)
chain: AVQLVDSGGGLVQPGGSLRLDCSASGTIIGTYTMAWYRQAPGKQREMVAIITPGGGSHHADSVKGRFTISRDNGKSTVYLQMSSLKFEDTAVYYCNAKARWGTTEYWGQGTQVTVSSGGGGSEVQLVESGGGLVQAGGSLRLSCVASGNIFSSNHMGWFRQAPGKQREFIAYITTREITNYADSVKGRFTISRDNTKNTVYLQMNVLKPEDTAVYYCIADQSREIRRSWGQGTQVTVSSGGGGSGGGGSQSQLAESGGGLVQSGGSLGLSCVASGFTISRSIMSWYRQPPGKERDWVASIGSAGNTNYVDSVKGRFTISRDVAKNTVYLQMNSLKPEDTAVYYCKTTLAVSFSEYWGQGTQVTVSS
notes: as for B16
In the case of B17, the Kd [2] is reported as 5.99 nM, the koff [2] is reported as 0.00106 s⁻¹ and the kon [2] is reported as 176000 M⁻¹ s⁻¹. The Kd [3] was 8.61 nM, the koff [3] was 0.00158 s⁻¹ and the kon [3] was 183000 M⁻¹ s⁻¹. It also gave a Kd [4] of 25.1 nM, a koff [4] of 0.003 s⁻¹ and a kon [4] of 119000 M⁻¹ s⁻¹. It also gave a Kd [5] of 21.8 nM, a koff [5] of 0.00246 s⁻¹ and a kon [5] of 112000 M⁻¹ s⁻¹.

B18: V-7 (9B8-9A2-7A12) (bispecific antibody)
chain: QVQLVESGGGLVQPGGSLRLSCAASGLTFSYYAMAWFRQAPGKEREFVAAINWNGGNTYNTDSVKGRFTISRDNAKNTVYLQMNSLKPEDTAVYYCAVRYNSASYLVARSSDYNYWGQGTLVTVSSGGGGSQSQLAESGGGLVQSGGSLGLSCVASGFTISRSIMSWYRQPPGKERDWVASIGSAGNTNYVDSVKGRFTISRDVAKNTVYLQMNSLKPEDTAVYYCKTTLAVSFSEYWGQGTQVTVSSGGGGSGGGGSEVQLVESGGGLVQAGGSLRLSCVASGNIFSSNHMGWFRQAPGKQREFIAYITTREITNYADSVKGRFTISRDNTKNTVYLQMNVLKPEDTAVYYCIADQSREIRRSWGQGTQVTVSS
notes: as for B16
B18 gave a Kd [2] of 6.59 nM, a koff [2] of 0.000789 s⁻¹ and a kon [2] of 120000 M⁻¹ s⁻¹. The Kd [3] was 10.2 nM, the koff [3] was 0.00133 s⁻¹ and the kon [3] was 130000 M⁻¹ s⁻¹. The Kd [4] was 0.0128 nM, the koff [4] was 1.17e-06 s⁻¹ and the kon [4] was 91600 M⁻¹ s⁻¹. The Kd [5] was 0.00135 nM, the koff [5] was 1.25e-07 s⁻¹ and the kon [5] was 93200 M⁻¹ s⁻¹.

B19: V-9 (9B8-7A12-9A2) (bispecific antibody)
chain: QVQLVESGGGLVQPGGSLRLSCAASGLTFSYYAMAWFRQAPGKEREFVAAINWNGGNTYNTDSVKGRFTISRDNAKNTVYLQMNSLKPEDTAVYYCAVRYNSASYLVARSSDYNYWGQGTLVTVSSGGGGSEVQLVESGGGLVQAGGSLRLSCVASGNIFSSNHMGWFRQAPGKQREFIAYITTREITNYADSVKGRFTISRDNTKNTVYLQMNVLKPEDTAVYYCIADQSREIRRSWGQGTQVTVSSGGGGSGGGGSQSQLAESGGGLVQSGGSLGLSCVASGFTISRSIMSWYRQPPGKERDWVASIGSAGNTNYVDSVKGRFTISRDVAKNTVYLQMNSLKPEDTAVYYCKTTLAVSFSEYWGQGTQVTVSS
notes: as for B16
B19 was tested, and the Kd [2] was 10.2 nM, the koff [2] was 0.0011 s⁻¹ and the kon [2] was 108000 M⁻¹ s⁻¹. The Kd [3] was 14.4 nM, the koff [3] was 0.00167 s⁻¹ and the kon [3] was 116000 M⁻¹ s⁻¹. For the same binder, the Kd [4] was 0.0027 nM, the koff [4] was 2.35e-07 s⁻¹ and the kon [4] was 86900 M⁻¹ s⁻¹. It also gave a Kd [5] of 0.0255 nM, a koff [5] of 1.95e-06 s⁻¹ and a kon [5] of 76400 M⁻¹ s⁻¹.

B20: V-n9B8 anti-EGFR VHH-His (VHH, not shown: small tags and cut ends)
VHH: QVQLVESGGGLVQPGGSLRLSCAASGLTFSYYAMAWFRQAPGKEREFVAAINWNGGNTYNTDSVKGRFTISRDNAKNTVYLQMNSLKPEDTAVYYCAVRYNSASYLVARSSDYNYWGQGTLVTVSS
notes: Monovalent parent VHH
For B20, the EC50 [1] was 2.04 nM and the “Maximum MFI value” [1] was 94600 MFI.

B21: zn9B8.m4 (VHH, not shown: small tags and cut ends)
VHH: EVQLLESGGGLVQPGGSLRLSCAASGLTFSYYAMAWFRQAPGKEREFVAAINWNGGNTYNTDSVKGRFTISRDNSKNTVYLQMNSLRSEDTAVYYCAVRYNSASYLVARSSDYNYWGQGTLVTVSS
notes: Humanized anti-EGFR VHH-His
B21 was tested, and the EC50 [1] was 1.43 nM and the “Maximum MFI value” [1] was 57100 MFI.
